In patent US20130323786A1 (Biogen, published 2013):

Columns and labels:
LINGO-Fc [1] = biological target: T1, LINGO-Fc (human, UniProt Q96FE5 40-538, limits assumed); test: direct ELISA on LINGO-Fc; OD450 at saturation relative to Li33;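 further: binding to plate-coated LINGO-Fc read by OD450, with the value at maximal saturation divided by the corresponding Li33 value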
T1 construct: not shown: Fc part
T1 sequence: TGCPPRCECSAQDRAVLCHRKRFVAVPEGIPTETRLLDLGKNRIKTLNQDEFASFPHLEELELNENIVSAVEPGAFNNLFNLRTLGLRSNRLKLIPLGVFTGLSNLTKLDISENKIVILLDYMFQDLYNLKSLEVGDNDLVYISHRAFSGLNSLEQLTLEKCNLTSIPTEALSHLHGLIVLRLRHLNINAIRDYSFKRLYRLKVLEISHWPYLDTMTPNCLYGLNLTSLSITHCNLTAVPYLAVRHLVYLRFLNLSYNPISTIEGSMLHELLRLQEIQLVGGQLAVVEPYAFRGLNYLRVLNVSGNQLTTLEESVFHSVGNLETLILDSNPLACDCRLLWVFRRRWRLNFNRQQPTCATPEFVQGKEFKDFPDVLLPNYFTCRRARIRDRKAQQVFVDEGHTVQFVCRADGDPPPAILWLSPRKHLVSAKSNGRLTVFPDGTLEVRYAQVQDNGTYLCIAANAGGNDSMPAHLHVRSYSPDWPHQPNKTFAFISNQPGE

LINGO-Fc [2] = biological target: T1, LINGO-Fc; test: direct ELISA on LINGO-Fc; half-maximal concentration relative to Li33;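 further: direct binding ELISA on plates coated with LINGO-Fc, concentration giving half of saturating binding, expressed as a ratio to the same value for the comparator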
Procedure: A direct binding ELISA assay was performed using LINGO-Fc coated plates. The half maximal concentration that gave 50% saturation of binding was measured and is reported as a ratio of the same measurement for Li33. In addition, the OD450 for maximal saturation value was measured and is reported as a ratio of the same measurement for Li33.

B1: WT Li33 (Table 11) (antibody, V domains shown)
VH: EVQLLESGGGLVQPGGSLRLSCAASGFTFSIYPMFWVRQAPGKGLEWVSWIGPSGGITKYADSVKGRFTISRDNSKNTLYLQMNSLRAEDTATYYCAREGHNDWYFDLWGRGTLVTVSS
VL: DIQMTQSPGTLSLSPGERATLSCRASQSVSSYLAWYQQKPGQAPRLLIYDASNRATGIPARFSGSGSGTEFTLTISSLQSEDFAVYYCQQYDKWPLTFGGGTKVEIKR
Plateau Ratio (LINGO-Fc [1]): 0.91 ratio
ELISA Ratio (LINGO-Fc [2]): 1 ratio

B2: Li33 variant P53S (SEQ ID NO:152) (antibody, V domains shown)
VH: EVQLLESGGGLVQPGGSLRLSCAASGFTFSIYPMFWVRQAPGKGLEWVSWIGSSGGITKYADSVKGRFTISRDNSKNTLYLQMNSLRAEDTATYYCAREGHNDWYFDLWGRGTLVTVSS
VL: DIQMTQSPGTLSLSPGERATLSCRASQSVSSYLAWYQQKPGQAPRLLIYDASNRATGIPARFSGSGSGTEFTLTISSLQSEDFAVYYCQQYDKWPLTFGGGTKVEIKR
notes: unchanged chain from WT Li33
Plateau Ratio (LINGO-Fc [1]): 1.43 ratio
ELISA Ratio (LINGO-Fc [2]): 2.5 ratio

B3: Li33 variant P53G (SEQ ID NO:180) (antibody, V domains shown)
VH: EVQLLESGGGLVQPGGSLRLSCAASGFTFSIYPMFWVRQAPGKGLEWVSWIGGSGGITKYADSVKGRFTISRDNSKNTLYLQMNSLRAEDTATYYCAREGHNDWYFDLWGRGTLVTVSS
VL: DIQMTQSPGTLSLSPGERATLSCRASQSVSSYLAWYQQKPGQAPRLLIYDASNRATGIPARFSGSGSGTEFTLTISSLQSEDFAVYYCQQYDKWPLTFGGGTKVEIKR
notes: unchanged chain from WT Li33
Plateau Ratio (LINGO-Fc [1]): 0.83 ratio
ELISA Ratio (LINGO-Fc [2]): 3.1 ratio

B4: Li33 variant I57G (SEQ ID NO:159) (antibody, V domains shown)
VH: EVQLLESGGGLVQPGGSLRLSCAASGFTFSIYPMFWVRQAPGKGLEWVSWIGPSGGGTKYADSVKGRFTISRDNSKNTLYLQMNSLRAEDTATYYCAREGHNDWYFDLWGRGTLVTVSS
VL: DIQMTQSPGTLSLSPGERATLSCRASQSVSSYLAWYQQKPGQAPRLLIYDASNRATGIPARFSGSGSGTEFTLTISSLQSEDFAVYYCQQYDKWPLTFGGGTKVEIKR
notes: unchanged chain from WT Li33
Plateau Ratio (LINGO-Fc [1]): 0.91 ratio
ELISA Ratio (LINGO-Fc [2]): 2.3 ratio

B5: Li33 variant I57T (SEQ ID NO:186) (antibody, V domains shown)
VH: EVQLLESGGGLVQPGGSLRLSCAASGFTFSIYPMFWVRQAPGKGLEWVSWIGPSGGTTKYADSVKGRFTISRDNSKNTLYLQMNSLRAEDTATYYCAREGHNDWYFDLWGRGTLVTVSS
VL: DIQMTQSPGTLSLSPGERATLSCRASQSVSSYLAWYQQKPGQAPRLLIYDASNRATGIPARFSGSGSGTEFTLTISSLQSEDFAVYYCQQYDKWPLTFGGGTKVEIKR
notes: unchanged chain from WT Li33
Plateau Ratio (LINGO-Fc [1]): 1.01 ratio
ELISA Ratio (LINGO-Fc [2]): 1.1 ratio

B6: Li33 variant I57S (SEQ ID NO:183) (antibody, V domains shown)
VH: EVQLLESGGGLVQPGGSLRLSCAASGFTFSIYPMFWVRQAPGKGLEWVSWIGPSGGSTKYADSVKGRFTISRDNSKNTLYLQMNSLRAEDTATYYCAREGHNDWYFDLWGRGTLVTVSS
VL: DIQMTQSPGTLSLSPGERATLSCRASQSVSSYLAWYQQKPGQAPRLLIYDASNRATGIPARFSGSGSGTEFTLTISSLQSEDFAVYYCQQYDKWPLTFGGGTKVEIKR
notes: unchanged chain from WT Li33
Plateau Ratio (LINGO-Fc [1]): 0.96 ratio
ELISA Ratio (LINGO-Fc [2]): 0.6 ratio

B7: Li33 variant P53T (SEQ ID NO:153) (antibody, V domains shown)
VH: EVQLLESGGGLVQPGGSLRLSCAASGFTFSIYPMFWVRQAPGKGLEWVSWIGTSGGITKYADSVKGRFTISRDNSKNTLYLQMNSLRAEDTATYYCAREGHNDWYFDLWGRGTLVTVSS
VL: DIQMTQSPGTLSLSPGERATLSCRASQSVSSYLAWYQQKPGQAPRLLIYDASNRATGIPARFSGSGSGTEFTLTISSLQSEDFAVYYCQQYDKWPLTFGGGTKVEIKR
notes: unchanged chain from WT Li33
Plateau Ratio (LINGO-Fc [1]): 0.85 ratio
ELISA Ratio (LINGO-Fc [2]): 2.1 ratio

B8: Li33 variant P53L (SEQ ID NO:151) (antibody, V domains shown)
VH: EVQLLESGGGLVQPGGSLRLSCAASGFTFSIYPMFWVRQAPGKGLEWVSWIGLSGGITKYADSVKGRFTISRDNSKNTLYLQMNSLRAEDTATYYCAREGHNDWYFDLWGRGTLVTVSS
VL: DIQMTQSPGTLSLSPGERATLSCRASQSVSSYLAWYQQKPGQAPRLLIYDASNRATGIPARFSGSGSGTEFTLTISSLQSEDFAVYYCQQYDKWPLTFGGGTKVEIKR
notes: unchanged chain from WT Li33
Plateau Ratio (LINGO-Fc [1]): 1.13 ratio
ELISA Ratio (LINGO-Fc [2]): 2.2 ratio

B9: Li33 variant I57M (SEQ ID NO:160) (antibody, V domains shown)
VH: EVQLLESGGGLVQPGGSLRLSCAASGFTFSIYPMFWVRQAPGKGLEWVSWIGPSGGMTKYADSVKGRFTISRDNSKNTLYLQMNSLRAEDTATYYCAREGHNDWYFDLWGRGTLVTVSS
VL: DIQMTQSPGTLSLSPGERATLSCRASQSVSSYLAWYQQKPGQAPRLLIYDASNRATGIPARFSGSGSGTEFTLTISSLQSEDFAVYYCQQYDKWPLTFGGGTKVEIKR
notes: unchanged chain from WT Li33
Plateau Ratio (LINGO-Fc [1]): 1.09 ratio
ELISA Ratio (LINGO-Fc [2]): 3.8 ratio

B10: Li33 variant P53W (SEQ ID NO:154) (antibody, V domains shown)
VH: EVQLLESGGGLVQPGGSLRLSCAASGFTFSIYPMFWVRQAPGKGLEWVSWIGWSGGITKYADSVKGRFTISRDNSKNTLYLQMNSLRAEDTATYYCAREGHNDWYFDLWGRGTLVTVSS
VL: DIQMTQSPGTLSLSPGERATLSCRASQSVSSYLAWYQQKPGQAPRLLIYDASNRATGIPARFSGSGSGTEFTLTISSLQSEDFAVYYCQQYDKWPLTFGGGTKVEIKR
notes: unchanged chain from WT Li33
Plateau Ratio (LINGO-Fc [1]): 0.55 ratio
ELISA Ratio (LINGO-Fc [2]): 3.9 ratio

B11: Li33 variant I57N (SEQ ID NO:161) (antibody, V domains shown)
VH: EVQLLESGGGLVQPGGSLRLSCAASGFTFSIYPMFWVRQAPGKGLEWVSWIGPSGGNTKYADSVKGRFTISRDNSKNTLYLQMNSLRAEDTATYYCAREGHNDWYFDLWGRGTLVTVSS
VL: DIQMTQSPGTLSLSPGERATLSCRASQSVSSYLAWYQQKPGQAPRLLIYDASNRATGIPARFSGSGSGTEFTLTISSLQSEDFAVYYCQQYDKWPLTFGGGTKVEIKR
notes: unchanged chain from WT Li33
Plateau Ratio (LINGO-Fc [1]): 1.1 ratio
ELISA Ratio (LINGO-Fc [2]): 2.9 ratio

B12: Li33 variant I57P (SEQ ID NO:184) (antibody, V domains shown)
VH: EVQLLESGGGLVQPGGSLRLSCAASGFTFSIYPMFWVRQAPGKGLEWVSWIGPSGGPTKYADSVKGRFTISRDNSKNTLYLQMNSLRAEDTATYYCAREGHNDWYFDLWGRGTLVTVSS
VL: DIQMTQSPGTLSLSPGERATLSCRASQSVSSYLAWYQQKPGQAPRLLIYDASNRATGIPARFSGSGSGTEFTLTISSLQSEDFAVYYCQQYDKWPLTFGGGTKVEIKR
notes: unchanged chain from WT Li33
Plateau Ratio (LINGO-Fc [1]): 1.27 ratio
ELISA Ratio (LINGO-Fc [2]): 0.6 ratio

B13: Li33 variant I57V (SEQ ID NO:185) (antibody, V domains shown)
VH: EVQLLESGGGLVQPGGSLRLSCAASGFTFSIYPMFWVRQAPGKGLEWVSWIGPSGGVTKYADSVKGRFTISRDNSKNTLYLQMNSLRAEDTATYYCAREGHNDWYFDLWGRGTLVTVSS
VL: DIQMTQSPGTLSLSPGERATLSCRASQSVSSYLAWYQQKPGQAPRLLIYDASNRATGIPARFSGSGSGTEFTLTISSLQSEDFAVYYCQQYDKWPLTFGGGTKVEIKR
notes: unchanged chain from WT Li33
Plateau Ratio (LINGO-Fc [1]): 1.13 ratio
ELISA Ratio (LINGO-Fc [2]): 1.4 ratio

B14: Li33 variant I57L (SEQ ID NO:163) (antibody, V domains shown)
VH: EVQLLESGGGLVQPGGSLRLSCAASGFTFSIYPMFWVRQAPGKGLEWVSWIGPSGGLTKYADSVKGRFTISRDNSKNTLYLQMNSLRAEDTATYYCAREGHNDWYFDLWGRGTLVTVSS
VL: DIQMTQSPGTLSLSPGERATLSCRASQSVSSYLAWYQQKPGQAPRLLIYDASNRATGIPARFSGSGSGTEFTLTISSLQSEDFAVYYCQQYDKWPLTFGGGTKVEIKR
notes: unchanged chain from WT Li33
Plateau Ratio (LINGO-Fc [1]): 1 ratio
ELISA Ratio (LINGO-Fc [2]): 0.7 ratio

B15: Li33 variant I57H (SEQ ID NO:162) (antibody, V domains shown)
VH: EVQLLESGGGLVQPGGSLRLSCAASGFTFSIYPMFWVRQAPGKGLEWVSWIGPSGGHTKYADSVKGRFTISRDNSKNTLYLQMNSLRAEDTATYYCAREGHNDWYFDLWGRGTLVTVSS
VL: DIQMTQSPGTLSLSPGERATLSCRASQSVSSYLAWYQQKPGQAPRLLIYDASNRATGIPARFSGSGSGTEFTLTISSLQSEDFAVYYCQQYDKWPLTFGGGTKVEIKR
notes: unchanged chain from WT Li33
Plateau Ratio (LINGO-Fc [1]): 1.07 ratio
ELISA Ratio (LINGO-Fc [2]): 3.2 ratio

B16: Li33 variant I57Y (SEQ ID NO:182) (antibody, V domains shown)
VH: EVQLLESGGGLVQPGGSLRLSCAASGFTFSIYPMFWVRQAPGKGLEWVSWIGPSGGYTKYADSVKGRFTISRDNSKNTLYLQMNSLRAEDTATYYCAREGHNDWYFDLWGRGTLVTVSS
VL: DIQMTQSPGTLSLSPGERATLSCRASQSVSSYLAWYQQKPGQAPRLLIYDASNRATGIPARFSGSGSGTEFTLTISSLQSEDFAVYYCQQYDKWPLTFGGGTKVEIKR
notes: unchanged chain from WT Li33
ELISA Ratio (LINGO-Fc [2]): 0 ratio

B17: Li33 variant I57W (SEQ ID NO:181) (antibody, V domains shown)
VH: EVQLLESGGGLVQPGGSLRLSCAASGFTFSIYPMFWVRQAPGKGLEWVSWIGPSGGWTKYADSVKGRFTISRDNSKNTLYLQMNSLRAEDTATYYCAREGHNDWYFDLWGRGTLVTVSS
VL: DIQMTQSPGTLSLSPGERATLSCRASQSVSSYLAWYQQKPGQAPRLLIYDASNRATGIPARFSGSGSGTEFTLTISSLQSEDFAVYYCQQYDKWPLTFGGGTKVEIKR
notes: unchanged chain from WT Li33
ELISA Ratio (LINGO-Fc [2]): 0 ratio

B18: Li33 variant I57F (SEQ ID NO:164) (antibody, V domains shown)
VH: EVQLLESGGGLVQPGGSLRLSCAASGFTFSIYPMFWVRQAPGKGLEWVSWIGPSGGFTKYADSVKGRFTISRDNSKNTLYLQMNSLRAEDTATYYCAREGHNDWYFDLWGRGTLVTVSS
VL: DIQMTQSPGTLSLSPGERATLSCRASQSVSSYLAWYQQKPGQAPRLLIYDASNRATGIPARFSGSGSGTEFTLTISSLQSEDFAVYYCQQYDKWPLTFGGGTKVEIKR
notes: unchanged chain from WT Li33
Plateau Ratio (LINGO-Fc [1]): 0.83 ratio
ELISA Ratio (LINGO-Fc [2]): 2 ratio
